Data reported in the nanobody polyreactivity screen of Harvey et al. (2022).

Assay: yeast display, Sf9 membrane polyspecificity reagent, FACS + sequencing; frameworks hold sequencing errors
Summary of the method: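 Polyreactivity labels are assigned by the sorting gate from which each nanobody was recovered. The gates were low and high (top ~1%), set on anti-HA fluorescence for expression and streptavidin fluorescence for reagent binding. Before sorting, galactose-induced (36–48 hours) yeast display cells were stained for 1 hour at 4 °C with 10% biotinylated, detergent-solubilized Sf9 membrane reagent.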

Sequence	polyreactivity (PSR sort gate)
QVQLVESGGGLVQAGGSLRLSCAASGTTLGYYTMGWYRQAPGKERELVAAIDWSGGSTYYADSVKGRFTISRDNAKNTVYLQMNSLKPEDTAVYYCNAEPWDPFYSPGRGGMDYWGQGTQVNVSS	low polyreactivity
QVQLVESGGGLVQAGGSLRLSCAASGSIFYGNAMGWYRQAPGKERELVAAITRGTRTYYADSVKGRFTISRDNAKNTVYLQMNSLKPEDTAVYYCAAYLYVPYRYKYDYWGQGAQVTVSS	high polyreactivity
QVQLVESGGGLVQAGGSLRLSCAASGIIFVGYAMGWYRQAPGKERELVAAISSGGSTNYADSVKGRFTISRDNAKNTVYLQMNSLKPEDTAVYYCATDSGDGEGDYWGQGTQVTVSS	low polyreactivity
QVQLVESGGGLVQAGGSLRLSCAASGRTFGYYAMGWYRQAPGKERELVASISWIGDDTYYADSVKGRFTISRDYAKNTVYLQMNSLKPEDTAVYYCNAVYAGRYFGFDYWGQGTQVTVSS	high polyreactivity
QVQLVESGGGLVQAGGSLRLICAASGSIFTYYVMGWYRQAPGKDRDLVAGISRAGSTNYADSVKGRFTISRDNAKNTVYLQMNSLKPEDTAVYYCAKSVWFVKHRKPHDYWGQGTQVTVSS	low polyreactivity
QVQLVESGGGVVQAGGSLRLSCAASGRTFNYYAMGWYRQAPGKERELVAAISRTATTYYADSVKGRFTISRDNAKNTVYLQMNSLKPEDTAVYYCAARSYSSSFSYRHYYWGQGTQVTVSS	high polyreactivity
QVQLVESGGGLVQAGGSLRLSCAASGSTFQSNGMGWYRQAPGKERELVAAITSTDASTSYADSVKGRFTISRDNAKNTVYLQMNSLKPEDTAVYYCAADFPVASGAELDYWGQGTQVTVSS	low polyreactivity
QVQLVESGGGLVQAGGSLRLCCAASGITFALNAMRWYRQAPGNERELLAAISWSGDSTYYADSVKGRITIARDNAKNTVYLQMNSLKPEDTAVYYCAAVAYLNWTPHYYWGQGTQVTVSS	low polyreactivity
QVQLVESGGGLVQAGGSLRLSCAASGFIFSSNAMGWYRQAPGKERELVARITWSDGSTYYADSVKGRFTISRDNAKNTVYLQMNSLKPEDTAVYYCAKGRDATHYEYYLYSMDYWGQGTQVTVSS	low polyreactivity
QVQLVESGGGLVQAGGSLRLSCAASGSIFITYAMGWYRQAPGKERELVAAIRDSGDRTYYADSVKGRFTISRDKAKNTDYLQKNSLKPEDTAVYYCNARWQEPLKYDYWGQGTQVTVSS	low polyreactivity
QVQLVESGGGLVKAGGSLRLSCAASGRTFASYAMGWYRQAPGKERELVAVITRGGRTYYADSVKGRFTISRDNAKNTVYLQMNSLKPEDTAVYYCNAAYYSSSYLEDYWGQGTQVTVSS	high polyreactivity
QVQLVESGGGLVQAGGSLRLSCAASGSTFWLYAMGWYRQAPGKERELVATISERGGSTYYADSVKGRFTISRDNAKNTVYLQMNSLKPEDTAVYYCAADQFHYPRGRRYDYWGQGTQVTVSS	low polyreactivity
QVQLVESGGGLVQAGGSLRLSCAASGLTFASYAMGWYRQAPGKERELVAVISASGGSTYYADSVKGRFTISRDNAKNPVYLQMNSLKPEDTAVYYCAARHSLYGYWGQGTLVTVSS	high polyreactivity
QVQLVESGGGLVQAGGSLRLSCAASGSIFTSYGMGWYRQAPGKERELVAAITYSGDRTYYADSVKGRFTISRDNAKITVYFQMNSLIPEDTAVYYCNVAYVYGSFRRRPMGYWGQGTQVTVSS	high polyreactivity
QVQLVESGGGLVQAGGRLRLTCAASGSIFGTYAMGWYRQAPGKERELVAAINSGDSTYYADSVKGRFTISRDNAKNTVYLQMNSLKPEDTAVYYCAAGRYWPGDYWGQGTQVTVSS	high polyreactivity
QVQLQESGGGLVQARGSLRLSCAASGSISRYYDMGWYRQAPCKESEFVAGISGGAITYYADSVKGRFTISRDNAKNTVYLQMNSLKPEDTAVYYCAADTGVYKYHSYWGQVTQVTVSS	low polyreactivity
QVQLVESGGGLVQAGGSLRLSCAASGRTFSKYTMGWYRQAPGKERELVAAIDRSGGSTYYADSVKGRFSISRDNAKNTVYLQMNSLKPEDTAVYYCNTGLRYYSYRRDYWGQGTQVTVSS	high polyreactivity
QVQLVESGGGLVQAGGSLRLSCAASGSIFAPYSMGWYRQAPGKERELVAAITWSGDSTYYADSVKGRFTISRDNAKNTVYLQMNSMKPEDTSVYYCATEEVYGQGNYWGQGTQLTVSS	low polyreactivity
QVQIVESGGGLVQAGGSLRLSCAASGRIFLPYAMGWYRQAPGKERELVAAITQSGVITSYADSVKGRFTISRDNAKNTVYLQMNSLKPEDTAVYYCATVRTVIVFRFPYSYGYWGQGTQVTVSS	high polyreactivity
QVQLVESGVGLVQAGGSLRLSCAASGIIFYDYVMGWYRPAPGKEWELVAAISRSGGSTYYADSVKGRFTISRDNAKNTVYLQMNSLKPEDTAVYYCAADTVVTEMEYCGQGTQVTVSS	high polyreactivity
QVQLVESGGGLVQAGGSLRLSCAASGLIFHRNAMGWYRQAPGKERELVAAITKTGGGTYYADSVKGRFTISLDNAKNTVYLQMNSLKPEDTAVYYCAADTQRTFYYWGQGTQVTVSS	low polyreactivity
QVQLVESGGGLVQAGGSLRLSCAASGSIFLYNAMGWYRPAPRKERELVAAISKSGGSTYYADSVKGRFTISRDNAKNTVYLQMNSLKPEDSAVYYCAAGYGRRIRYGSDYDYWGQGTQVTVSS	low polyreactivity

Sequence	polyreactivity (PSR sort gate)
QVQLVESGGGLVQAGGSLRLSCAASGSTLYGNVMGWYRQAPGKERELVATINRGGSTNYADSVKGRFTISRDNAKNNVYLQMNSLKPEDTAVYYCAADYYGYWYDYEGDHWGQGTQVTVSS	low polyreactivity
QVQLLESGGGLVQAGGTLRLSCAASGYTFTNNAMGWYRQAPGKERELVAGITRGGSTNYADSVKGRFTISRDNAKNTVSLQMNSLKPEDTAVYYWAADLRPNSQNGLLEDEMDYWGQGTQVTVSS	low polyreactivity
QVQLVESGGGLVQAGGSLRLSCAASGSTFHRNGMGWYRQAPGKERELVAAISRTGGSTYYADSEKGRFTISRDNAKNTVYLQMNSLKPEDTAVYYCAAQGNNYVRHTYGYWGQGTQVTVSS	low polyreactivity
QVQLQESGGLVQAGGLRLSCAASGSVSYQEAMGWYRQAPGKERELVATISFGAKTNYADSVKGRFTISRDNAKNTVYLHINSLNPEDTAVYYCAAESLFDDYYGYWGQGTQVTVSS	low polyreactivity
QVQLVESGGGLVQAGGSLRLSCAASGSIFFSNTMGWYRQAPGKERELVARITWSGTSTNYADSVKGRFTISRDNAKNTVYLQMNSLKPEDTAVYYCNAGFYTSAGYDYWGQGTQVTVSS	high polyreactivity
QVQLVESGGGIVQAGGSLRLSCAASGFTFGYYARGWYRQAPGKERELVAAISSRVGRTYYADSVKGRFTISRDNAKNTDYLQMNSLKPEDTAVYYCNTVGKTQWYYYWGQGTQVTVAS	high polyreactivity
QVQLVESGGGLVQAGGSLRLSCADSGIIFKGYDMGWYSQPPGKEREVVAAIYSGSTNYADSVKGRFTISRDNAKNTVYLQMNSLKPEDTAVYYCNSDLGRATFYQRVFIERGGYWGQGTQVTVSS	low polyreactivity
QVQLVESGGGLFQAGGSLRLSSAASGIIFGYYSLGWYRQAPGKERELVAAINQDGSSTYYADSVKGRFTISRDNAKNTVYLQMNSLNPEDTAVYYCNARGVPRQDDRMGYWGQGTQVTVSS	low polyreactivity
QVQLVESGGGLVQAGGSLRLSCAASGSTFPYYGMGWYRQAPGKERELVAAINSGGSTYYADSVKGRFTISRDNAKNTVYLQMNSLKPEDTAVYYCNAAYPEWYAYDYWGQGTQVTVSS	low polyreactivity
QVQLVESGGGLVQAGGSLRLSCAASGRIFEHNAMGWYRQAPGKEREFVAAISSSGGSTYYADSVKGRFTISRDNAKNTVYLQMNSLKPEDTAVYYCNAGSTYYERNYWGQGTQVTVSS	low polyreactivity
QVQLVESGGGLVQAGGSLRLSCAASGLTFSWNAMGWYRQAPGKERELVAAISSRGGSTYYADSVKGRFKISRDNAKNTVYLQMNSLKPEDTAVYYCNAHGRRFLGDYGYWGQGTQVTVSS	low polyreactivity
QVHLVESGGGLVQAGGSLRLSCAASGFIFYYYAMGWYRQAPGKERELFARISRRGGSTYYADSVKGRFTISRDNAKNTVYLQMNSLKPEDTAVYYCAAVYLVYYGVSDMDYWGQGTKVTVSS	high polyreactivity
QVQLVESGGGLVQAGGSLRLSCAAYGRIFYAYAMGWYRQAPGKERELVAAITNGGGTTYYADSVKGRFTISRDNAKNTVYLQMNSLKPEDTAVYYCNAVRYTIAHGFYYVPEDYWGQGTQVTVSS	low polyreactivity
QVQLVESGGGLVQAGGSLRLSCAASGSIFIYYAMGWYRQAPGKERELVAAISWSGGDTYYADSVKGRFTISRDNAKNTVYFHMNILKPEDTAVYYCNADYYPYYPYTAWDTVLTHDEYWGQGTQVTVSS	low polyreactivity
QVQLVESGGGLDQAGGSLRLICAASGITFFPYAMVWYRQAPGKEKELVAAISSGSSTYYADSVKGRFTISRDNAKNTVYLQMNSLKPEDTAVYYCATRRDLHDRYEYDYWGQGTQVTVSS	low polyreactivity
QVQLVESGGALVQAGGSLRISCAASGLIIVRKAMGLYRQAPGKERELVAAIRWSGGSTYYADSVKGRFTISRDNGNNTVFLQMNRLKPEDTSVYYCAATGYGFDMDYWGQGTQVNVSS	low polyreactivity
QVQLVESGGGLVQAGGSLRLSCAASGFIFGWNAMGWYRQAPGKEREFVAAITSSGTSTYYADSVKGRFTISRDNAKNTVYLQMNSLKPEDTAVYYCAADVIFNWLAYSTEYDYWGQGTQVTVSS	low polyreactivity
QVQLVESGGGLVQAGGSLRLSCAASGSTFDGNDMGWYRQAPGKERELVAAITIGGGSTYYADSVKGRFTISRDNAKNTVYLQMNSLKPEDTAVYYCAAVYFYSWEGDGDYWGQGTQVTVSS	low polyreactivity
QVQLVESGGGLVQAGGSLRLSCAASGNTYIRNVMGCYRQAPGKERELVAGIRTGGSTFYADSVKGRFTISRDNAKNPVYLQMNSLKPEDTAVYYCAGYQLRLVYGYGYWGQGTQVTVSS	low polyreactivity
QVHLVESGGGLVQAGGSLRLSCAASGSTFYNNAMGLYRQAPGKERELVASISLSAGSTYYADSVKGRFTISRDNAKNTVYLQMNSMKPEDTAVYYCAAESVAILVLVYPKGYGYWGQGTQVTVSS	low polyreactivity
QDQLVESGGGLVQAGCSLRLSCAASGRTFTYYAMGWYRQAPGKERELVAALSKRGGTTYYADSVKVRFSMSRDNAKNTDYLKMNSLKAVDTAVYYCATEGNLRTAGYAYDHYYWGQGTQVTVSS	high polyreactivity
